Reference: the nanobody polyreactivity screen of Harvey et al. (2022)

assay: yeast display, Sf9 membrane polyspecificity reagent, FACS + sequencing; frameworks hold sequencing errors
Method in brief: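 Using colony PCR, genes from sorted yeast display clones were amplified, then sequenced on MiSeq at 2 × 250 and filtered by CDR length. The clones had been stained with 10% biotinylated, detergent-solubilized Sf9 membrane reagent for 1 hour at 4 °C and sorted by FACS into low and high (top ~1%) gates on anti-HA and streptavidin fluorescence. Polyreactivity labels come from the gate of origin.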

| Sequence | polyreactivity (PSR sort gate) |
| --- | --- |
| QVQLVESGGGLVQAGGSLRLSCAASGSTFAANAMGWYRPAPGKERELDAAITSSGGSTYYADSVKGRFTISRDNAKNTVYLQMISLKPEDTAVYYCNKDIERYVRIYDSWGQGTQVTVSS | low polyreactivity |
| QVQLVESGGGLVQAGGSLRLSCAASGIILREYTMGWYRQAPGKERELVAAISGSGGSTYYADSVKGRFTISRDNAKNTVYLQMNSLKPDDTAVYYCNAVIAAKARDAVVGSGMDYWGQGTQVTVSS | high polyreactivity |
| QVQLVESGGGLVQAGGSLRLSCAASGSIFRYYVMGWYRQAPGKERELVASISYSVGRTYYADSVKGRFTISRDNAKNTVYLQMNSLKPEVTAVYYCAADRYWPYYSAYYTSYRMDYWGKGTQVTVSS | high polyreactivity |
| QVQLVESGGGLVQAGGSLRLSCAASGSIFSTYARGWYRQAPGKERELVATITSGGNTNYADSVKGRYTISRDNAKNTVYLQMNSLKPEDTAVDYSNKEWDGDGYTDDWDYDYWGQGTQVTVSS | low polyreactivity |
| QVQLVESGGGLVQAGGSLRLSCAASGITFFTYGMGWYRQAPGKERELVASINWSGGTYYADSVKGRFTISRDNAKNTVYLQMNSLKPEDTAVYYCAAETSNSTQEMGYWGQGTQVTVSS | low polyreactivity |
| QVQLVESGGGLVQAGGRLRLSCAASGSIILFKDMGWYGQAPGKERELVADITWSGGSTYYADSVKGRFTISCDNAKNTVYLQMHSLKPEDTAVDYCADDPDYYFTRGNYQWGYYWGQGTQVTVSS | low polyreactivity |
| QVQLVESGGGLVHAGGSLRLSCAASGSIFTRNAMGWYRQAPGKERELVAAISRRGVSTYYADSVKGRFTISRDNAKNTVYLQMNSLKPEDTAVYYCNATIRYYRRGKLYDYWGQGTQVTVSS | high polyreactivity |
| QVQLGESGGGLVQAGGSLRLSCAASGSIFQKYTMGWYRQAPGKERELVAAITRSGGSTYYADSVKGRFTISRDNAKNTVDFQMNSLKPEDTAVYYCAAPAAGDEYDYWGQVTQVTVSS | high polyreactivity |
| QVQLVESGGGLVQAGRSLRLSCAASGRTFPYYAMGWYRQAHGKEREFVAAISRRGASTYYADSVKGRFTISRDNAKNTVNLQMNSLKPEDTAVYYCNAVYRCYYSGELDYWGQGTQVTVSS | high polyreactivity |
| QVQLVESGGGLVQAGGSLRLSCAASGRTFRQYAMGWYRQAPGKERELVATISSGGSTYYADSVKGRFTISRDNAKNTVYLHMNSLKPEDTAVYYCNAEGQWSRAPRDYWGQGTQVTVSS | low polyreactivity |
| QVQLVESGGGLVQAGGSLRLSCAASGFIFYGNAMGWYRQAPGKERELVAAITRRGGRTYYADSVKGRFTISRDNAKNTVYLQMNSLKPEDTAVYYCAKDRGRSLEMDYWGQGTQVTVSS | high polyreactivity |
| QVQLVESGGGLVKAGASLRLSCAASGRTFRHNARGWYRQAPGKERELVAAITIGTNTYYADSVKGRFTISRDNAKNTVYLQMNSLKPEDTEVYYCAAVKDRYAYVPPRFDYWGQGSQVTVSS | low polyreactivity |
| QVQLVESGGGLVQAGGSLRLCCAAAGSTFVYYAMGSYRAAPGNERELVAAIRNGDGTNYADSVKGRFTISRDNAKNTVYLQMNSLKPEDTAVYYCAAPQGEYFYVYEFDYWGQGTQVTVSS | low polyreactivity |
| QVQLVESGGGLVQAGGSLRLSSAASGFTFVRYTMGWYRQAPGKERELVAAINASGDRTYYADSVKGRFTISRDNAKNTVYLQMNCLIPEDTAVFYCAAGSSLYYSHMGYWGQGTQVTVSS | high polyreactivity |
| QVQLVESGGGLVQAGGSLRLSCAASGSTFAGYAMGWYRQAPGKERELVAAISKSGGSTYYADSVKGRFTISRDNAKNTVYLQMNSLKPEDTAVYYCAARGGLPDGQGYYYWGQGTQVTVSS | high polyreactivity |
| QVQLVVSGGGLVQAGGSLRLSCAASGRIFVYNAMGWYRQAPGKERELVATITSGGSTYYADSVKGRFTISRDNAKNTVYLQMNSLKPEDTAVYYCAARRWYVHYFAYGYWGQGTQVTVSS | low polyreactivity |
| QVQLVESGGGLVQAGGSLRLSCAASGNIFDSNAMGWYRQAPGKERELVAAITWSGGSTYYADSVKGRFTISRDNAKNTVYLQMNSLKPEDTAVYYCNAVRQQRNVPGGQYEFDYWGQGTQVTVSS | high polyreactivity |
| QVQLVESGGGLVQAGGSLRLSCAASGFTLDWYVMGWYRQAPGKDRELVAAISSSGGRTYYADSVKGRFTISRDNAKNTVYLQMNSLKPEDTAVYYCAARNKYGGYPYGYDYWGQGTQVTVSS | high polyreactivity |
| QVQLVESGGGLDQAGGSLRLSCAASGSIFYYYVMGWYRQAPGKERELVAAITNSDRTYYADSVKGRFTISRDNAKNTVYLQMNSLKLEDTAVYYCNADWFDQYYRDGLRGRYGYWRQGTQVTVSS | low polyreactivity |
| QVQLEESGGGLVQAGGSLRLSCAASGSTFGYYAMGWYRQAPGKERELVAAISRSGGITYYADSVKGRFTISRDNAKNTVYLQMNSLKPDDTAVYYCAADRNRYTGEDDSWGQGTQVTVSS | low polyreactivity |

| Sequence | polyreactivity (PSR sort gate) |
| --- | --- |
| QVQLVESGGGLVQAGGSLRLSCAASGSTFSYYAMGWYRQAPGKERELVAAITYSVGSTYYADSVKGRFTISRDNAKNTVYLQMNSLKPEDTAVYYCNKRYYYSRANYPYDYWGQGTQVTVSS | low polyreactivity |
| QVQLVESGGGLVQAGGSLRLSCAASGFIFDQYAMGWYRQAPGKERELVAAITTGGDTNYADSVKGRFTISRDNAKNTVYLQMISLKPDDSAVYYCAAKKWLTSGAFDRVFIEFDYWGQGTQVTVSS | low polyreactivity |
| QVQLVESGGGLVQAGGSLRLSCAAYGRIIYLNAMGWYRQAPGKERELVATISSSGGTTNYADSVKGRFTISRDNAKNTVYLQMNSLKPEDTAVYYCAAKFVGTTVSEYGYWGQGTQVTVSS | low polyreactivity |
| QVQLVESGGGLVQAGCSLRLSCDASGFIFKVYAMGWYRQAPGKERELVASISFSGGRTYYADSVKGRFTISRDNAKNTFYLQMNSLKPEDSAVYYCNRSYVNKYYSWGQGTQVTVSS | high polyreactivity |
| QVQLVESGGGLVQAGGSLRLSCAASGITFVRNAMGWYRQAPGKERELVAAISGRGGITYYADSVKGRFTISRDNAKNTVYLQMNSLKPEDTAVYYCAASSAGSSYNYWGQGTQVTVSS | high polyreactivity |
| QVQLVESGGGLVPAGGSLRLSCAASGSTFNGYPMGWYRQAPGKEREFVATITFSDGSTYYADSVKGRFTISRDNAKNTVYLQMNSLKPEDTAVYYCNVDSRIGYDYWGQGTQVTVSS | low polyreactivity |
| QVKLVESGGGLVQAGGSLRLSCAASGFIFIDNTMGWYRQEPGKERELVAGINTSGASTHYADSVKGRFTISRDYAKNTVYLQMNSLKPEDTAVYYCNRGDLPKADYNDYSYDYDYRGQGTQVTVSS | low polyreactivity |
| QDQLVESGGGLVQAGGSLSLSCAASGSIFFRNVMGWYRQAPGKERELVAAISGSGGRTYNADSVKGRFTISRDNAKNTVYLQMNSLKPEDTAVYYCYADYWSRRDDHDYWGQGTQVSVSS | high polyreactivity |
| QVQLVESGGGLVQAGGSLRLSCAASGSIFPYYAMGWYRQAPGKEREFVAAITISGGSTYYADSVKGRFTISRDNAKNTVYLQMNSLKPEDTAVYYCNADKGYVYGDTFYQSGGYYSWGQGTQVTVSS | low polyreactivity |
| QVQLVESGGGLVQAGGSLRLSCAASGSTFTRYVMGWYRQAPGKERELVAAISKRGGSTYYADSVKGRFTISRDNAKNTVYLQMNSLKPEDTAVYYCNRVSRAPFDYWGQGTQVTVSS | high polyreactivity |
| QVQLVESGGGLVQAGGSLRLSCAASGRILSSYAMGWYRQAPGKERELVARISYSGGRTYYADSVKGRFTISRDNAKNTVYLQMNSLKPEDTAVYYCAAVSRVHFSYIYDYWGQGTQVTVSS | high polyreactivity |
| QVQLVESGGCLVQAGGRLRLSCAASGRIFRGYAMGWYRQAPGKERELVARITSGGRTYYADSVKGRFTISRDNAKNTVYLQMNSLKPEDTAVYYCAAPPSVRTRKAYYYWGQGTQVTVSS | high polyreactivity |
| QVQLVESGGGLVQAGGTLRLSCAASGSILTPNAMGWSRQAPGKERELVAAISDNAGSTYYADSVKGRFTISRDNAKNTVYLQMNSLKPEDTAVYYCAAEYWEYNLVYLVYYYSMDYWGQGTQVTVSS | high polyreactivity |
| QVQLVESGGVLVQAGGSLRLSCAAMGWYRQAPGKERELVATITWSGGSTYYADSVKGRFTISRDNAKNTVYLQMNSLKPEDTAVYYCNSRATLLSPANTIRGYDYWGQGTQVTVSS | low polyreactivity |
| QDQLVDSGGGLVQAGGSLRLSCAASGSIFTPNAMGWYRQAPGKERELVAAISWSGGGTYYADSVKGRFTISRDNAKNTVYLQMNSLKPEDTAVYYCNAEYTKTGALVIPYTYYYAEDYWGQGTQVTVSS | low polyreactivity |
| QVQLVESGGGLVQAGGSLRLSCAASGGTFGTNTMGWYRPAHGKERELVAAISKRGGRTYYADSVKGRFTISRDNAKITVYLQMNSLKPEDTAVYYCAADTGGNPKYDYWGQGTQVTVSS | high polyreactivity |
| QVQLVESGGGLVQAGGSLRLSCAASGFIFWYYAMGWYRQAPGKERELVAAITSGGSTNYADSVKGRFTISRDNAKNTVYLQMNSLKPEDTAVYYCARPYVTYEYDYWGQGTQVTVSS | low polyreactivity |
| QVQLVESGGGLVQAGGSLRLSCAASGSIFNGYAMGWYRQAPGKERELVADIRSGGSTYYADSVKGRFTISRDNAKNTVYLQMNSLKPEDTAVYYCAADTITDGYDYWGQGTQVTVSS | low polyreactivity |
| QVQLVESGGGLVQAGGSLRLSCAASGRIFLPNAMGWYRQAPGKERELVATITRGGGSTYYADSVKGRFTISRDNAKNTVYLQMNSLKPEDTAVYYCAKGYLLYQGHLPYWHRGGYWGQGTQVTVSS | high polyreactivity |
| QGQLVESGGGLGQAGGSLRLSCAASGSTVVLYAMGWYRQARGKERELVAAISGGATTTYADSVKGRFTISRDNAKNTVYLQMNSLKPEDTAVYYCAADFSTFVLSGAAMDYWGQGTQVTVSS | low polyreactivity |
